Experimental findings from patent US20240288446 are described below.

This data set addresses T1, Human Glu-plasminogen.
T1 chain: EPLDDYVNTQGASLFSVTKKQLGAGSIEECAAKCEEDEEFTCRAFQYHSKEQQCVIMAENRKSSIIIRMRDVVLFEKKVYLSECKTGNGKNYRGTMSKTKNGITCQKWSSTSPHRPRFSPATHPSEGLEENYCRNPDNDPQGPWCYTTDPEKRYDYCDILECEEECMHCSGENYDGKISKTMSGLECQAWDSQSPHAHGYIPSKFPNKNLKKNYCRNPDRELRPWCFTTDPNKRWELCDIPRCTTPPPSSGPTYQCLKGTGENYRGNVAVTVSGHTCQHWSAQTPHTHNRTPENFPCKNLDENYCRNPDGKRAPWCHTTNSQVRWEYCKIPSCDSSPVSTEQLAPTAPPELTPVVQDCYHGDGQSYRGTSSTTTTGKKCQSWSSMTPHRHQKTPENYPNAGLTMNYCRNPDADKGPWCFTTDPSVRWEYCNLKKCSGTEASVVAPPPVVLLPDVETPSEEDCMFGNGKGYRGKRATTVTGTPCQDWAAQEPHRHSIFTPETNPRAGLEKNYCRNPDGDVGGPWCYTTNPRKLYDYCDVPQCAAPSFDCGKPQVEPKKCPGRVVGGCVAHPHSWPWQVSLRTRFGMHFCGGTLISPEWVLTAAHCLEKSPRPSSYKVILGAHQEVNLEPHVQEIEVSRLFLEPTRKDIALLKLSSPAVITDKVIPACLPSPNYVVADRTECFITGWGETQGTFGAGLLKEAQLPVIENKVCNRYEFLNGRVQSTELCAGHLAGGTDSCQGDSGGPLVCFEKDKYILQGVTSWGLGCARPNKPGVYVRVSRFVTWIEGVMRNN

B1: Human tissue plasminogen activator (protein)
chain: SYQVICRDEKTQMIYQQHQSWLRPVLRSNRVEYCWCNSGRAQCHSVPVKSCSEPRCFNGGTCQQALYFSDFVCQCPEGFAGKCCEIDTRATCYEDQGISYRGTWSTAESGAECTNWNSSALAQKPYSGRRPDAIRLGLGNHNYCRNPDRDSKPWCYVFKAGKYSSEFCSTPACSEGNSDCYFGNGSAYRGTHSLTESGASCLPWNSMILIGKVYTAQNPSAQALGLGKHNYCRNPDGDAKPWCHVLKNRRLTWEYCDVPSCSTCGLRQYSQPQFRIKGGLFADIASHPWQAAIFAKHRRSPGERFLCGGILISSCWILSAAHCFQERFPPHHLTVILGRTYRVVPGEEEQKFEVEKYIVHKEFDDDTYDNDIALLQLKSDSSRCAQESSVVRTVCLPPADLQLPDWTECELSGYGKHEALSPFYSERLKEAHVRLYPSSRCTSQHLLNRTVTDNMLCAGDTRSGGPQANLHDACQGDSGGPLVCLNDGRMTLVGIISWGLGCGQKDVPGVYTKVTNYLDWIRDNMRP
As to B1, the “conversion of plasminogen into plasmin (plasmin-selective chromogenic substrate)” value was “The time- and concentration-dependent conversion of plasminogen into plasmin at the fibrin-NETs lattice was reduced as compared to fibrin alone”.
